Biological target: His-RelA (p65) (UniProt Q04206 1-551)
Test: EMSA; EMSA: 10 mM Tris-HCl pH 7.9, 50 mM NaCl, 1 mM MgCl2, 1 mM EDTA, 5 mM DTT, 5% glycerol, 0.5 µg poly dI.dC, 2-10 µg acetylated BSA, 10 min, room temperature; gel
Settings: protein: recombinant, tags: His, chain copies: 2

His-RelA (p65), sequence (Q04206 whole entry): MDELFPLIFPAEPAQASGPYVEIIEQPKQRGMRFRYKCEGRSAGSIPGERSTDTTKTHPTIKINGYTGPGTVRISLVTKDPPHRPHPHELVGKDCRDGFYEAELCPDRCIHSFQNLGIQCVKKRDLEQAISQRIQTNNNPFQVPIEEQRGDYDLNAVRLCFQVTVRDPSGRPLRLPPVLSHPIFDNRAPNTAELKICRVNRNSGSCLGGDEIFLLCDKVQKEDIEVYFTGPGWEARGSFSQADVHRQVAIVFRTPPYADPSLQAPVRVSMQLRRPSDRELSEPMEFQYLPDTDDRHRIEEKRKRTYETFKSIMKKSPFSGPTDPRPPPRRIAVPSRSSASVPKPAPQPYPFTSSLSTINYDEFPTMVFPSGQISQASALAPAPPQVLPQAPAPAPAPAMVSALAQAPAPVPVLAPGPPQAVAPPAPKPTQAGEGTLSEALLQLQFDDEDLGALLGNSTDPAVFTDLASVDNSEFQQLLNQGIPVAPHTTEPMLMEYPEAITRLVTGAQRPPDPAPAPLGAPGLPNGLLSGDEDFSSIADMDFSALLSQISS

B1: C1-M (dsDNA)
DNA 1: GAAACACCCTGTACTCCGAAAAGGTCCCTGGCCCGGAGCTCTG
DNA 2: CAGAGCTCGGGGCCAGGGACCTTTTCGGAGTACAGGGTGTTTC
**Q.** Does B1 bind (blunt as printed, one internal mismatch outside the motif (printed))?
**A.** Result: no binding

B2: IL6-M (dsDNA)
DNA 1: TTGCTATTAAATGTGTTCGTTTGTACAGAGTCTCAAAA
DNA 2: TTTTGAGACTCTGTACAAACGAACACATTTAATAGCAA
**Q.** Does B2 bind (blunt)?
**A.** Result: no binding

B3: C2-M (dsDNA)
DNA 1: GGACCCTGAGCTCAGAAAAGGTCCCTGGTCCACGGGCT
DNA 2: AGCCCGTGGACCAGGGACCTTTTCTGAGCTCAGGGTCC
**Q.** Does B3 bind (blunt)?
**A.** Result: no binding
